Data published in IntAct's records for PubMed 18854156.

B1: Sporulation initiation inhibitor protein Soj (Bacillus subtilis), P37522 (parent)
chain: MGKIIAITNQKGGVGKTTTSVNLGACLAYIGKRVLLVDIDPQGNATSGLGIEKADVEQCVYDILVDDADVIDIIKATTVENLDVIPATIQLAGAEIELVPTISREVRLKRALEAVKQNYDYIIIDCPPSLGLLTINALTASDSVVIPVQCEYYALEGLSQLLNTVRLVQKHLNTDLMIEGVLLTMLDARTNLGIQVIEEVKKYFRDKVYKTVIPRNVRLSEAPSHGKPIILYDPRSRGAEVYLDLAKEVAANG

Variants of: B1
Conditions: with dnaa_bacsu dnaA

Row | effect of a mutation on the interaction | Variant
1 | decreasing interaction | MGKIIAITNQKGGVGKTTTSVNLGACLAYIGKRVLLVDIAPQGNATSGLGIEKADVEQCVYDILVDDADVIDIIKATTVENLDVIPATIQLAGAEIELVPTISREVRLKRALEAVKQNYDYIIIDCPPSLGLLTINALTASDSVVIPVQCEYYALEGLSQLLNTVRLVQKHLNTDLMIEGVLLTMLDARTNLGIQVIEEVKKYFRDKVYKTVIPRNVRLSEAPSHGKPIILYDPRSRGAEVYLDLAKEVAANG [D40A]

Variants of: B1
Conditions: with dnaa_bacsu dnaA
Remark: another data set of the same source

Row | effect of a mutation on the interaction | Variant
2 | increasing interaction | MGKIIAITNQKVGVGKTTTSVNLGACLAYIGKRVLLVDIDPQGNATSGLGIEKADVEQCVYDILVDDADVIDIIKATTVENLDVIPATIQLAGAEIELVPTISREVRLKRALEAVKQNYDYIIIDCPPSLGLLTINALTASDSVVIPVQCEYYALEGLSQLLNTVRLVQKHLNTDLMIEGVLLTMLDARTNLGIQVIEEVKKYFRDKVYKTVIPRNVRLSEAPSHGKPIILYDPRSRGAEVYLDLAKEVAANG [G12V]
3 | increasing interaction | MGKIIAITNQKGGVGATTTSVNLGACLAYIGKRVLLVDIDPQGNATSGLGIEKADVEQCVYDILVDDADVIDIIKATTVENLDVIPATIQLAGAEIELVPTISREVRLKRALEAVKQNYDYIIIDCPPSLGLLTINALTASDSVVIPVQCEYYALEGLSQLLNTVRLVQKHLNTDLMIEGVLLTMLDARTNLGIQVIEEVKKYFRDKVYKTVIPRNVRLSEAPSHGKPIILYDPRSRGAEVYLDLAKEVAANG [K16A]
